Measurements published in the supplement of paper PMC7877785.
± gives the uncertainty stated by the source.

Test: self-splicing fitness, log relative to wild type (ln ratio); higher = more splicing; Tetrahymena group I intron in knt gene, E. coli kanamycin selection, DiMSum; sequences stand for … in CUCUCU…GGAGGGAAAAGUUAUCAGGCAUGCACCUGGUAGCUAGUCUUUAAACCAAUAGAUUGCAUCGGUUUAAAAGGCAAGACCGUCAAAUUGCGGGAAAGGGGUCAACAGCCGUUCAGUACCAAGUCUCAGGGGAAACUUUGAGAUGGCCUUGCAAAGGGUAUGGUAAUAAGCUGACGGACAUGGUCCUAACCACGCAGCCAAGUCCUAAGUCAACAGAUCUUCUGUUGAUAUGGAUGCAGUUCACAGACUAAAUGUCGGUCGGGGAAGAUGUAUUCUUCUCAUAAGAUAUAGUCGGACCUCUCCUUAAUGGGAGCUAGCGGAUGAAGUGAUGCAACACUGGAGCCGCUGGGAACUAAUUUGUAUGCGAAAGUAUAUUGAUUAGUUUUGGAGUACUCGUGGUCG
Outline: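 Pooled colonies went to amplicon sequencing on an Illumina HiSeq 2500 after six replicate transformations. The plates were LB agar with 100 μg/mL carbenicillin, 50 μM IPTG and 0.2% rhamnose, with or without 25 μg/mL kanamycin, incubated overnight at 37°C or 30°C. The E. coli BL21(DE3) library had all eight P1ex-region intron nucleotides randomised, the intron placed in the knt kanamycin-resistance gene on pET-22b(+). DiMSum fitness is the error-weighted combination of replicate fold changes, kanamycin against none, normalised to wild type.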

Sequence	self-splicing fitness (ln) (30 °C)	self-splicing fitness (ln) (37 °C)
GGGAAGCAAUAUUACGAGUG	-3.06 ± 0.12	-1.81 ± 0.11
GGGAAGCAAUAUUACGCAAA	-1.9 ± 0.24	-2 ± 0.17
GGGAAGCAAUAUUACGCCAG	-3.13 ± 0.36	
GGGAAGCAAUAUUACGCCGG	-3.75 ± 0.29	
GGGAAGCAAUAUUACGCCUG	-0.0824 ± 0.11	-0.324 ± 0.16
GGGAAGCAAUAUUACGCGCU	-2.66 ± 0.28	-0.954 ± 0.27
GGGAAGCAAUAUUACGCUAA	-1.84 ± 0.2	-0.363 ± 0.18
GGGAAGCAAUAUUACGGAGU	-2.86 ± 0.12	-2.05 ± 0.16
GGGAAGCAAUAUUACGGCAU	-0.534 ± 0.16	-0.344 ± 0.19
GGGAAGCAAUAUUACGGGAA	-1.55 ± 0.45	-1.14 ± 0.31
GGGAAGCAAUAUUACGGGCU	-0.942 ± 0.12	-0.846 ± 0.12
GGGAAGCAAUAUUACGUAAA	-1.53 ± 0.21	-1.56 ± 0.3
GGGAAGCAAUAUUACGUAGC	-1.84 ± 0.18	-1.37 ± 0.16
GGGAAGCAAUAUUACGUGUU	-3.17 ± 0.21	-1.9 ± 0.16
GGGAAGCAAUAUUACGUUGU	-3.23 ± 0.22	-2.31 ± 0.29
GGGCAGCAAUAUUACGAAAA	-2.12 ± 0.38	-2.31 ± 0.4
GGGCAGCAAUAUUACGAACA	-0.951 ± 0.17	-0.607 ± 0.18
GGGCAGCAAUAUUACGAAUU	-0.318 ± 0.12	-0.166 ± 0.17
GGGCAGCAAUAUUACGACUA	-0.237 ± 0.094	0.125 ± 0.11
GGGCAGCAAUAUUACGAGUA	-2.78 ± 0.42	-2.53 ± 0.33
GGGCAGCAAUAUUACGAUAU	-0.768 ± 0.099	-0.877 ± 0.1
GGGCAGCAAUAUUACGAUCG	-0.913 ± 0.098	0.377 ± 0.15
GGGCAGCAAUAUUACGAUGU	-3.92 ± 0.3	-0.5 ± 0.18
GGGCAGCAAUAUUACGAUUA	-1.27 ± 0.14	-1.63 ± 0.15
GGGCAGCAAUAUUACGCAAA	-1.39 ± 0.099	-0.884 ± 0.11

Sequence	self-splicing fitness (ln) (30 °C)	self-splicing fitness (ln) (37 °C)
GGGCAGCAAUAUUACGCAAG	-1.37 ± 0.24	-0.431 ± 0.23
GGGCAGCAAUAUUACGCACG	0.202 ± 0.26	-1.16 ± 0.19
GGGCAGCAAUAUUACGCCCU	-2.78 ± 0.4	
GGGCAGCAAUAUUACGCCGA	-0.407 ± 0.078	0.467 ± 0.1
GGGCAGCAAUAUUACGCUUU	-0.861 ± 0.057	0.0207 ± 0.075
GGGCAGCAAUAUUACGGAAC	-1.22 ± 0.1	-1.75 ± 0.15
GGGCAGCAAUAUUACGGCAA	-0.705 ± 0.14	-0.742 ± 0.17
GGGCAGCAAUAUUACGGCGU	-1.16 ± 0.12	-0.571 ± 0.12
GGGCAGCAAUAUUACGGGUG	-3.07 ± 0.14	-1.71 ± 0.19
GGGCAGCAAUAUUACGGUCA	0.308 ± 0.069	0.187 ± 0.083
GGGCAGCAAUAUUACGUAAG	-0.581 ± 0.063	0.126 ± 0.096
GGGCAGCAAUAUUACGUGCU	-3.46 ± 0.22	-2.16 ± 0.25
GGGGAGCAAUAUUACGAAAU	-3.38 ± 0.47	-2.37 ± 0.39
GGGGAGCAAUAUUACGAAGG	-2.62 ± 0.41	-1.44 ± 0.39
GGGGAGCAAUAUUACGACAA	-1.55 ± 0.42	
GGGGAGCAAUAUUACGACUC	-0.891 ± 0.25	-0.405 ± 0.5
GGGGAGCAAUAUUACGAUUA	-2.23 ± 0.23	-1.58 ± 0.22
GGGGAGCAAUAUUACGAUUU	-2.01 ± 0.16	-0.868 ± 0.16
GGGGAGCAAUAUUACGCCGA	-2.05 ± 0.5	
GGGGAGCAAUAUUACGCCGU	-2.64 ± 0.33	-0.911 ± 0.34
GGGGAGCAAUAUUACGCUUA	-1.04 ± 0.2	-1.1 ± 0.27
GGGGAGCAAUAUUACGGCAC	-1.39 ± 0.18	-1.06 ± 0.3
GGGGAGCAAUAUUACGGCGU	-1.31 ± 0.12	-1.08 ± 0.15
GGGGAGCAAUAUUACGGGAG		-1.53 ± 0.39
GGGGAGCAAUAUUACGGGGU	-3.23 ± 0.3	-2.13 ± 0.43

Sequence	self-splicing fitness (ln) (30 °C)	self-splicing fitness (ln) (37 °C)
GGGGAGCAAUAUUACGGUAG	-3.09 ± 0.27	
GGGGAGCAAUAUUACGUAGC	-2.01 ± 0.24	-1.91 ± 0.36
GGGGAGCAAUAUUACGUAUA	-1.69 ± 0.47	-2.35 ± 0.39
GGGGAGCAAUAUUACGUCGU	-2.77 ± 0.18	-1.63 ± 0.21
GGGGAGCAAUAUUACGUCUA		-2.6 ± 0.37
GGGGAGCAAUAUUACGUGAG	-1.74 ± 0.26	-1.36 ± 0.2
GGGGAGCAAUAUUACGUGUG	-3.08 ± 0.27	-1.7 ± 0.21
GGGGAGCAAUAUUACGUUCA	-1.86 ± 0.25	-1.35 ± 0.19
GGGGAGCAAUAUUACGUUCC		-2 ± 0.3
GGGGAGCAAUAUUACGUUGA	-3.11 ± 0.26	-2.27 ± 0.24
GGGGAGCAAUAUUACGUUUG		-2.43 ± 0.37
GGGUAGCAAUAUUACGAAAU	-1.8 ± 0.11	-0.914 ± 0.11
GGGUAGCAAUAUUACGAAUA	-0.00785 ± 0.18	-0.878 ± 0.18
GGGUAGCAAUAUUACGACAC	-0.676 ± 0.33	-0.155 ± 0.35
GGGUAGCAAUAUUACGAGAU	-2.43 ± 0.19	-1.59 ± 0.21
GGGUAGCAAUAUUACGAGUA		0.307 ± 0.22
GGGUAGCAAUAUUACGAGUC	-3.63 ± 0.26	-0.588 ± 0.17
GGGUAGCAAUAUUACGAUGC	-0.816 ± 0.14	-0.295 ± 0.19
GGGUAGCAAUAUUACGCAGC	-2.55 ± 0.13	-0.837 ± 0.12
GGGUAGCAAUAUUACGCGCA	-0.0848 ± 0.13	-0.0359 ± 0.14
GGGUAGCAAUAUUACGCGGA	-2.64 ± 0.27	-1.06 ± 0.13
GGGUAGCAAUAUUACGCGUA	-0.49 ± 0.1	-0.35 ± 0.11
GGGUAGCAAUAUUACGCUAU	-2.86 ± 0.22	-2.98 ± 0.31
GGGUAGCAAUAUUACGCUUC	-2.91 ± 0.25	
GGGUAGCAAUAUUACGGACG	-1.74 ± 0.13	-2.1 ± 0.2

Sequence	self-splicing fitness (ln) (30 °C)	self-splicing fitness (ln) (37 °C)
GGGUAGCAAUAUUACGGAUC	0.0263 ± 0.12	0.637 ± 0.17
GGGUAGCAAUAUUACGGAUG	-1.19 ± 0.17	-2.61 ± 0.28
GGGUAGCAAUAUUACGGAUU	-0.431 ± 0.19	-0.333 ± 0.23
GGGUAGCAAUAUUACGGCGC	-0.217 ± 0.12	-1.14 ± 0.12
GGGUAGCAAUAUUACGGCUG	-0.592 ± 0.11	-1.05 ± 0.14
GGGUAGCAAUAUUACGGGAA	-3.91 ± 0.42	-1.86 ± 0.27
GGGUAGCAAUAUUACGGGUA	-1.55 ± 0.28	-1.1 ± 0.21
GGGUAGCAAUAUUACGGGUU	-2.7 ± 0.15	-1.27 ± 0.14
GGGUAGCAAUAUUACGGUUA	-1.43 ± 0.14	-0.344 ± 0.12
GGGUAGCAAUAUUACGGUUG	-2.88 ± 0.14	-0.949 ± 0.17
GGGUAGCAAUAUUACGUAAG	-1.46 ± 0.14	-0.429 ± 0.15
GGGUAGCAAUAUUACGUAGC	-0.707 ± 0.15	-0.648 ± 0.16
GGGUAGCAAUAUUACGUCCA	-0.128 ± 0.093	0.376 ± 0.12
GGGUAGCAAUAUUACGUCGU	-0.541 ± 0.086	0.73 ± 0.12
GGGUAGCAAUAUUACGUCUG	-1.21 ± 0.12	-1.15 ± 0.14
GGGUAGCAAUAUUACGUGGU	-2.59 ± 0.13	-2.04 ± 0.17
GGGUAGCAAUAUUACGUGUU	-1.37 ± 0.097	-0.992 ± 0.11
GGGUAGCAAUAUUACGUUGG	-3.28 ± 0.28	-2.14 ± 0.32
GGUAAGCAAUAUUACGACAA	-0.393 ± 0.1	-0.112 ± 0.16
GGUAAGCAAUAUUACGACAU	-0.0747 ± 0.013	-0.0479 ± 0.033
GGUAAGCAAUAUUACGACCA	-1.47 ± 0.17	-0.643 ± 0.21
GGUAAGCAAUAUUACGAGCA	-0.801 ± 0.093	-0.377 ± 0.12
GGUAAGCAAUAUUACGAGGU	-3.61 ± 0.37	-2.22 ± 0.28
GGUAAGCAAUAUUACGAUUC	-0.184 ± 0.14	0.0485 ± 0.14
